Data from patent publication US20210403527A1 (published 2021).
Changes are numbered by the printed parent chain.

T1: NY-ESO-1 peptide on HLA-A*02:01 (human)
T1 peptide: SLLMWITQC

B1: TCR001 (TCR, V domains shown)
Valpha: DAKTTQPNSMESNEEEPVHLPCNHSTISGTDYIHWYRQLPSQGPEYVIHGLTSNVNNRMASLAIAEDRKSSTLILHRATLRDAAVYYCILRPDSWGKFQFGAGTQVVVTP
Vbeta: NAGVTQTPKFRILKIGQSMTLQCAQDMNHNYMYWYRQDPGMGLKLIYYSVGAGITDKGEVPNGYNVSRSTTEYFPLRLELAAPSQTSVYFCASSYSGGSPLHFGNGTRLTVT
B2: TCR018 (TCR, V domains shown)
Valpha: AQTVTQSQPEMSVQEAETVTLSCTYDTSESDYYLFWYKQPPSRQMILVIRQEAYKQQNATENRFSVNFQKAAKSFSLKISDSQLGDAAMYFCAYRSANSGYALNFGKGTSLLVTP
Vbeta: ETGVTQTPRHLVMGMTNKKSLKCEQHLGHNAMYWYKQSAKKPLELMFVYNFKEQTENNSVPSRFSPECPNSSHLFLHLHTLQPEDSALYLCASSQAHYTEAFFGQGTRLTVV
B3: TCR050 (TCR, V domains shown)
Valpha: DAKTTQPNSMESNEEEPVHLPCNHSTISGTDYIHWYRQLPSQGPEYVIHGLTSNVNNRMASLAIAEDRKSSTLILHRATLRDAAVYYCILREGNNDMRFGAGTRLTVKP
Vbeta: B1 Vbeta with Y95W, S96T, G97D, G98N, S99Q, L101Q, N105D, T110S, V111I, T112L
B4: TCR063 (TCR, V domains shown)
Valpha: QKEVEQNSGPLSVPEGAIASLNCTYSDRGSQSFFWYRQYSGKSPELIMSIYSNGDKEDGRFTAQLNKASQYVSLLIRDSQPSDSATYLCAVNILASGGSYIPTFGRGTSLIVHP
Vbeta: ETGVTQTPRHLVMGMTNKKSLKCEQHLGHNAMYWYKQSAKKPLELMFVYNFKEQTENNSVPSRFSPECPNSSHLFLHLHTLQPEDSALYLCASSHGTGYNYGYTFGSGTRLTVV
B5: TCR090 (TCR, V domains shown)
Valpha: GENVEQHPSTLSVQEGDSSVIKCTYSDSASNYFPWYKQELGKRPQLIIDIRSNVGEKKDQRIAVTLNKTAKHFSLHITETQPEDSAVYFCAATGYGQNFVFGPGTRLSVLP
Vbeta: EAQVTQNPRYLITVTGKKLTVTCSQNMNHEYMSWYRQDPGLGLRQIYYSMNVEVTDKGDVPEGYKVSRKEKRNFPLILESPSPNQTSLYFCASSLRGPYGYTFGSGTRLTVV
B6: TCR108 (TCR, V domains shown)
Valpha: GENVEQHPSTLSVQEGDSAVIKCTYSDSASNYFPWYKQELGKRPQLIIDIRSNVGEKKDQRIAVTLNKTAKHFSLHITETQPEDSAVYFCAASMKDSSYKLIFGSGTRLLVRP
Vbeta: ETGVTQTPRHLVMGMTNKKSLKCEQHLGHNAMYWYKQSAKKPLELMFVYNFKEQTENNSVPSRFSPECPNSSHLFLHLHTLQPEDSALYLCASSQGPGYTFGSGTRLTVV
B7: TCR167 (TCR, V domains shown)
Valpha: B1 Valpha
Vbeta: GAVVSQHPSWVICKSGTCVKIECRSLDFQATTMFWYRQFPKQSLMLMATSNEGSKATYEQGVEKDKFLINHASLTLSTLTVAGAHPEDSSFYICSAMTVMNTEAFFGQGTRLTVV
B8: TCR184 (TCR, V domains shown)
Valpha: DQQVKQNSPSLSVQEGRISILNCDYTNSMFDYFLWYKKYPAEGPTFLISISSIKDKNEDGRFTVFLNKSAKHLSLHIVPSQPGDSAVYFCAARKNYGGSQGNLIFGKGTKLSVKP
Vbeta: DAGVTQSPTHLIKTRGQQVTLRCSPISGHKSVSWYQQVLGQGPQFIFQYYEKEERGRGNFPDRFSARQFPNYSSELNVNALLLGDSALYLCASSLGSYDYTFGSGTRLTVV
B9: TCR188 (TCR, V domains shown)
Valpha: DAKTTQPNSMESNEEEPVHLPCNHSTISGTDYIHWYRQLPSQGPEYVIHGLTSNVNNRMASLAIAEDRKSSTLILHRATLRDAAVYYCILNTGTASKLTFGTGTRLQVTL
Vbeta: GAVVSQHPSWVICKSGTSVKIECRSLDFQATTMFWYRQFPKQSLMLMATSNEGSKATYEQGVEKDKFLINHASLTLSTLTVTSAHPEDSSFYICSAKEGTEAFFGQGTRLTVV
B10: TCR317 (TCR, V domains shown)
Valpha: QKEVEQNSGPLSVPEGAIASLNCTYSDRGSQSFFWYRQYSGKSPELIMSIYSNGDKEDGRFTAQLNKASQYVSLLIRDSQPSDSATYLCAVNSSPYKLSFGAGTTVTVRA
Vbeta: B6 Vbeta

Target: T1, NY-ESO-1 peptide on HLA-A*02:01
Assay: multimer staining

Binding result, recognises:
B1
B2
B3
B4
B5
B6
B7
B8
B9
B10
